Data: patent US20240417463A1 (ADAGENE PTE, published 2024)
Positions count from the first letter of the chain named.

B1: TY21451 (antibody, V domains shown)
VH: EVQLVESGGGLVQPGGSLRLSCAASGFTFSDYWIHWVRQAPGKGLEWVSGISGAGGSTYYADSVKGRFTISRDNSKNTLYLQLNSLRAEDTAVYYCARLGDYWGQGTLVTVSS
VL: DIQLTQSPSSLSASVGDRVTITCRASQGISSVLAWYQQKPGKAPKLLIYAASTLQSGVPSRFSGSGSGTDFTLTISSLQPEDFATYYCQQYYSIPFTFGQGTKVEIKR
B2: TY21447 (antibody, V domains shown)
VH: EVQLVESGGGLVQPGGSLRLSCAASGFTFSNYAIHWVRQAPGKGLEWVSAISGSGSSTYYADSVKGRFTISRDNSKNTLYLQLNSLRAEDTAVYYCARRGSYGFGAFDYWGQGTLVTVSS
VL: DIQLTQSPSSLSASVGDRVTITCRASQTIGRYLNWYQQKPGKAPKLLIYDASNRATGIPSRFSGSGSGTDFTLTISSLQPEDFATYYCQQRYPWPYTFGQGTKVEIKR
B3: TY21449 (antibody, V domains shown)
VH: B2 VH with N31G
VL: B2 VL
B4: TY25035 (antibody, V domains shown)
VH: EVQLVESGGGLVQPGGSLRLSCAASGYSISSGYHWDWIRQAPGKGLEWLARIYWDGDKRYSPSLKSRLTISRDNSKNTLYLQLNSLRAEDTAVYYCARFSDGFDPWGQGTLVTVSS
VL: EIVLTQSPATLSLSPGERATLSCRASQSVDFVGISFLHWYQQKPGQAPRLLIYDASNRATGIPARFSGSGSGTDFTLTISSLEPEDFAVYYCVQGLQWPHTFGQGTKVEIKR
B5: TY25036 (antibody, V domains shown)
VH: QVQLVQSGAEVKKPGSSVKVSCKASGYTFTGYAIHWVRQAPGQGLEWIGWISPSSGSTKYAQKFQGRVTITADKSTSTAYMELSSLRSEDTAVYYCARYGYGPVFDYWGQGTLVTVSS
VL: DIQLTQSPSSLSASVGDRVTITCSASSSVTYIYWYQQKPGKAPKLLIYDASNRATGIPSRFSGSGSGTDFTLTISSLQPEDFATYYCQQYTSSPRGFTFGQGTKVEIKR
B6: TY25040 (antibody, V domains shown)
VH: QVQLVQSGAEVKKPGSSVKVSCKASGFTFSDYGIHWVRQAPGQGLEWIGRIYPSGGSTNYAQKFQGRVTITADKSTSTAYMELSSLRSEDTAVYYCARQRGYGRFAYWGQGTLVTVSS
VL: DIQLTQSPSSLSASVGDRVTITCSASSSVGYVYWYQQKPGKAPKLLIYDASSLESGVPSRFSGSGSGTDFTLTISSLQPEDFATYFCQQYTYAPFTFGQGTKVEIKR
B7: TY25034 (antibody, V domains shown)
VH: EVQLVESGGGLVQPGGSLRLSCAASGYSITSGHYWNWIRQAPGKGLEWIGIISPSGGGTKYAQKFQGRVTISRDNSKNTLYLQLNSLRAEDTAVYYCARGARGYYALDYWGQGTLVTVSS
VL: EIVLTQSPATLSLSPGERATLSCRASQSVRGRLLAWYQQKPGQAPRLLIYAASSLQSGVPARFSGSGSGTDFTLTISSLEPEDFAVYYCAQYLELPYTFGQGTKVEIKR
B8: TY25033 (antibody, V domains shown)
VH: QVQLVQSGAEVKKPGSSVKVSCKASGFTFTSYAIHWVRQAPGQGLEWIGIINPNFGSTNYAQKFQGRVTITADKSTSTAYMELSSLRSEDTAVYYCARYYYGASFDVWGQGTLVTVSS
VL: DIQLTQSPSSLSASVGDRVTITCKSGQSLLHGDVKTYLYWYQQKPGKAPKLLIYDASNRATGIPSRFSGSGSGTDFTLTISSLQPEDFATYYCQQYASWPPGFTFGQGTKVEIKR
B9: TY25030 (antibody, V domains shown)
VH: EVQLVESGGGLVQPGGSLRLSCAASGYSITSGYYWSWIRQAPGKGLEWIGEIYHSGNTYYNPSLKSRVTISRDNSKNTLYLQLNSLRAEDTAVYYCARRVPLGAFDYWGQGTLVTVSS
VL: DIQLTQSPSSLSASVGDRVTITCRASQTVISRYLAWYQQKPGKAPKLLIYDASNLETGVPSRFSGSGSGTDFTLTISSLQPEDFATYYCQQYYAWPLTFGQGTKVEIKR
B10: TY25029 (antibody, V domains shown)
VH: EVQLVESGGGLVQPGGSLRLSCAASGYTFSNYWIHWVRQAPGKGLEWIGIIYPSSGSTKYAQKFQGRVTISRDNSKNTLYLQLNSLRAEDTAVYYCARDRAPGSSGYYDGFDYWGQGTLVTVSS
VL: DIQLTQSPSSLSASVGDRVTITCRASQSVDFHGISFLHWYQQKPGKAPKLLIYDASSLESGVPSRFSGSGSGTDFTLTISSLQPEDFATYYCHQRSTTPLTFGQGTKVEIKR
B11: TY25031 (antibody, V domains shown)
VH: EVQLVESGGGLVQPGGSLRLSCAASGYSITSGYHWGWIRQAPGKGLEWIGRIYPSSGSTKYAQKFQGRVTISRDNSKNTLYLQLNSLRAEDTAVYYCARGVRGSYGWFDVWGQGTLVTVSS
VL: DIQLTQSPSSLSASVGDRVTITCSASSRVSYVYWYQQKPGKAPKLLIYAASTLQSGVPSRFSGSGSGTDFTLTISSLQPEDFATYYCQHYVSSPRVYTFGQGTKVEIKR
B12: TY25039 (antibody, V domains shown)
VH: QVQPAQSGAEVKKPGSSVKVSCKASGYSISSGYYWGWIRQAPGQGLEWIGAISYSGSTYYSPSLKSRVTITADKSTSTAYMELSSLRSEDTAVYYCARHYLFAGSTSYDAFDIWGQGTLVTVSS
VL: DIQLTQSPSSLSASVGDRVTITCRASQSVDFYGFSFLAWYQQKPGKAPKLLIYDASNRATGIPSRFSGSGSGTDFTLTISSLQPEDFATYYCQQSYRTPLTFGQGTKVEIKR
B13: TY25037 (antibody, V domains shown)
VH: QVQLVQSGAEVKKPGSSVKVSCKASGYSITSGHYWTWIRQAPGQGLEWIGGIIPVFGTPNYAQKFQGRVTITADKSTSTAYMELSSLRSEDTAVYYCASYGYGGAYFDVWGQGTLVTVSS
VL: B12 VL with Y32H, F34I, A38H, Q93V, S95G, Y96I, R97Q, T98W, L100W
B14: TY25038 (antibody, V domains shown)
VH: QVQLVQSGAEVKKPGSSVKVSCKASGFTFSRYAIHWVRQAPGQGLEWLGGIIPVFGTANYAQKFQGRVTITADKSTSTAYMELSSLRSEDTAVYYCARQGILGGFAYWGQGTLVTVSS
VL: DIQLTQSPSSLSASVGDRVTITCRASESVDFHGKSFLAWYQQKPGKAPKLLIYAASSLQSGVPSRFSGSGSGTDFTLTISSLQPEDFATYYCQQYLELPFTFGQGTKVEIKR
B15: TY25032 (antibody, V domains shown)
VH: EVQLVESGGGLVQPGGSLRLSCAASGFTFTSYGIHWVRQAPGKGLEWVSAISGSGGSTYYADSVKGRFTISRDNSKNTLYLQLNSLRAEDTAVYYCARSGHAYDFDYWGQGTLVTVSS
VL: DIQLTQSPSSLSASVGDRVTITCRASQSVDFYGISFLDWYQQKPGKAPKLLIYAASTLQSGVPSRFSGSGSGTDFTLTISSLQPEDFATYYCQQGGTSPWTFAQGTKVEIKR
B16: TY25041 (antibody, V domains shown)
VH: QVQLVQSGAEVKKPGSSVKVSCKASGYSISSGHHWNWIRQAPGQGLEWIGAISYSGSTYYSPSLKSRVTITADKSTSTAYMELSSLRSEDTAVYYCARQGYYGGEGYAVDYWGQGTLVTVSS
VL: B12 VL with F34I, A38H, Q93V, S95A, Y96T, R97Q, L100F

target: T1, hCD47-ECD/Fc protein (Sinobiological) (human, UniProt Q08722 19-139, biotinylated in the Octet assay, sites not stated); assay: competition ELISA vs biotin-hSIRPα-ECD/His on coated hCD47-ECD/Fc, experiment 2
T1 construct: extracellular domain; Bought protein; also called human CD47-Fc antigen; recombinant hCD47-ECD/Fc; not shown: Fc part of the bought fusion protein

Going from B1 to B2, the IC50 falls from > 100 nM to 3.12 nM. The second is the more potent here.

B3 was tested, and the IC50 was 3.18 nM.

target: T1, hCD47-ECD/Fc protein (Sinobiological); assay: BLI (Octet RED96), biotin-hCD47-ECD/Fc on SA sensors, 1:1 model;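 note: test antibodies as analytes, 300 s association then 300 s dissociation in running buffer, with benchmark reference antibodies run as controls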
Protocol: (§1) The binding affinity between antibodies and human CD47 was measured through Octet® RED96 System (ForteBio). […] After washing, the sensors were dipped into solutions containing test antibodies for 300 seconds to monitor the association phase, and then were dipped into running buffer for 300 seconds to monitor the dissociation phase. The acquired ForteBio data were processed with Data Acquisition software 7.1, and kinetic data were fitted to a 1:1 Langmuir binding model.

B4 and B5 cannot be ordered by Kd: < 0.001 nM for the first, < 0.001 nM for the second.

Going from B6 to B7, the Kd rises from 0.474 nM to 0.826 nM (1.7-fold).

Going from B8 to B9, the Kd rises from < 0.001 nM to 4.62 nM.

Compared with B10, B11 is 3.1-fold lower in Kd: 1.51 nM for the first, 0.483 nM for the second. The second binds more tightly here.

Going from B12 to B13, the Kd rises from 0.141 nM to 0.611 nM (4.3-fold).

For B14, the Kd was 4.47 nM.

B4 and B5 cannot be ordered by koff: < 1e-07 s⁻¹ for the first, < 1e-07 s⁻¹ for the second.

Going from B6 to B7, the koff rises from 0.0002 s⁻¹ to 0.000671 s⁻¹ (3.4-fold).

Going from B8 to B9, the koff rises from < 1e-07 s⁻¹ to 0.00166 s⁻¹.

Going from B10 to B11, the koff falls from 0.000631 s⁻¹ to 8.1e-05 s⁻¹ (7.8-fold).

Compared with B12, B13 is 2.5-fold higher in koff: 1.37e-05 s⁻¹ for the first, 3.42e-05 s⁻¹ for the second.

B14 showed a koff of 0.00111 s⁻¹.

Going from B4 to B5, the kon falls from 171000 M⁻¹ s⁻¹ to 93700 M⁻¹ s⁻¹ (1.8-fold).

Compared with B6, B7 is 1.9-fold higher in kon: 422000 M⁻¹ s⁻¹ for the first, 813000 M⁻¹ s⁻¹ for the second.

First: B8
Second: B9
The kon of the first is 6.1-fold lower: 58900 M⁻¹ s⁻¹ for the first, 361000 M⁻¹ s⁻¹ for the second.

Compared with B10, B11 is 2.5-fold lower in kon: 417000 M⁻¹ s⁻¹ for the first, 168000 M⁻¹ s⁻¹ for the second.

Compared with B12, B13 is 1.7-fold lower in kon: 97300 M⁻¹ s⁻¹ for the first, 56000 M⁻¹ s⁻¹ for the second.

With B14 the kon was 249000 M⁻¹ s⁻¹.

target: T1, hCD47-ECD/Fc protein (Sinobiological); assay: BLI (Octet RED96), biotin-hCD47-ECD/Fc on SA sensors, 1:1 model; ForteBio BLI affinity ranking, not ELISA
Protocol: as §1

B15 gave a Kd of 2.73 nM.

For B15, the koff was 0.000806 s⁻¹.

In the case of B15, the kon is reported as 295000 M⁻¹ s⁻¹.

target: human CD47 on the cell surface (CEM, Raji and other human tumor cells, human RBCs) (human) (UniProt Q08722); assay: not given

Neg ctrl (antibody) was tested, and the % of events double-positive for CFSE-Raji and BMQC-Jurkat (cell clustering), antibody at 100 nM was 10.3%.

target: T1, hCD47-ECD/Fc protein (Sinobiological); assay: ELISA, coated hCD47-ECD/Fc, second independent measurement
Protocol: (§2) After blocking, the plates were washed three times and incubated with test antibodies with serial dilution at 37° C. for 1 hour. Then the plates were washed three times and incubated with HRP-conjugated anti-human Fab secondary antibody (Sigma) at 37° C. for 1 hour. After washing three times, the plates were incubated with TMB substrate for 15 minutes at room temperature. The reaction was stopped by the addition of H2SO4 stop solution. Absorbance at 450 nm was measured by a microplate reader. The data were analyzed by GraphPad Prism 7.0.

B6 and B7 are within 1.5-fold of each other in EC50: 0.39 nM for the first, 0.41 nM for the second.

B11 was tested, and the EC50 was 0.6 nM.

target: T1, hCD47-ECD/Fc protein (Sinobiological); assay: ELISA, coated hCD47-ECD/Fc
Protocol: as §2

B4 and B5 are within 1.5-fold of each other in EC50: 2.55 nM for the first, 1.71 nM for the second.

B6 and B7 are within 1.5-fold of each other in EC50: 0.46 nM for the first, 0.47 nM for the second.

Going from B8 to B9, the EC50 falls from 6.11 nM to 2.42 nM (2.5-fold). The second is the more potent here.

B10 and B11 are within 1.5-fold of each other in EC50: 0.58 nM for the first, 0.59 nM for the second.

First: B12
Second: B16
The EC50 of the first is 3.1-fold higher: 3.66 nM for the first, 1.17 nM for the second. The second is the more potent here.

Going from B13 to B2, the EC50 falls from 0.95 nM to 0.33 nM (2.9-fold).

B14 was tested, and the EC50 was 0.78 nM.

target: T1, hCD47-ECD/Fc protein (Sinobiological); assay: BLI (Octet RED96), biotin-hCD47-ECD/Fc on SA sensors, 1:1 model, second independent measurement
Protocol: as §1

In the case of B7, the Kd is reported as 0.87 nM.

B7 showed a koff of 0.000704 s⁻¹.

Work on B7 yielded a kon of 809000 M⁻¹ s⁻¹.

target: T1, hCD47-ECD/Fc protein (Sinobiological); assay: competition ELISA vs biotin-hSIRPα-ECD/His on coated hCD47-ECD/Fc, experiment 1
Protocol: The plates were washed three times again and incubated with HRP-conjugated streptavidin at 37° C. for 1 hour. After washing, the plates were incubated with TMB substrate for 15 minutes at room temperature. The reaction was stopped by the addition of H2SO4 stop solution. Absorbance at 450 nm was measured by a microplate reader. The data was analyzed by GraphPad Prism 7.0.

Going from B4 to B5, the IC50 rises from 60.6 nM to > 100 nM. The first is the more potent here.

B6 and B7 are within 1.5-fold of each other in IC50: 3.3 nM for the first, 3.53 nM for the second.

Going from B8 to B9, the IC50 falls from > 100 nM to 21.7 nM.

First: B10
Second: B11
The IC50 of the first is higher: > 100 nM for the first, 4.55 nM for the second.

B12 and B16 cannot be ordered by IC50: > 100 nM for the first, > 100 nM for the second.

B13 and B14 cannot be ordered by IC50: > 100 nM for the first, > 100 nM for the second.
